Source: paper PMC314469, “Protein Interaction Networks by Proteome Peptide Scanning” (PLoS Biology, 2004)

T1: Rvs167 SH3 (RV167_YEAST), P39743
T1 chain: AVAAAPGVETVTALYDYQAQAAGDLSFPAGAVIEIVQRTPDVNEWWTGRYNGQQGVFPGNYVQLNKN

T2: Boi1 SH3 (BOI1_YEAST), P38041
T2 chain: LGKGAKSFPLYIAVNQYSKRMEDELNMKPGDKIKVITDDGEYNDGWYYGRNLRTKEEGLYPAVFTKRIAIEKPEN

T3: Boi2 SH3 (BOI2_YEAST), P39969
T3 chain: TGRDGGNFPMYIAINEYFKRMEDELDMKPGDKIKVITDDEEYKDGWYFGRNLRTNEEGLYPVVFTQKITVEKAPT

T4: Myo5 SH3 (MYO5_YEAST), Q04439
T4 chain: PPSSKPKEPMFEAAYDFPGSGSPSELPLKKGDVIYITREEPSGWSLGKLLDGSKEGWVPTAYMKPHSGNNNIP

T5: Yfr024 SH3 (LSB3_YEAST), P43603
T5 chain: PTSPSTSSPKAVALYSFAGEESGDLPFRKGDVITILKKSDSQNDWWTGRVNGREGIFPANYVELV

T6: Yhr016c SH3 (YSC84_YEAST), P32793
T6 chain: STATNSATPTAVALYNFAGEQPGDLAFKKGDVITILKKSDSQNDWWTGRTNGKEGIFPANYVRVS

B1: YPL249C 247-260 (peptide)
chain: SETARKVPPIPTQI
B2: YDR345C 274-287 (peptide)
chain: SKVNKVAPDHPFIQ
B3: YLR328W 26-39 (peptide)
chain: SKIPKSIPIIPYVL
B4: YIR018W 25-38 (peptide)
chain: SKNWKLPPRLPHRA
B5: YJL095W 698-711 (peptide)
chain: SGSGRRYPQTPSYY
B6: YAL017W 1333-1346 (peptide)
chain: SILNRSVPKRPTID
B7: YIR010W 418-431 (peptide)
chain: SERRKALPKEPKKL
B8: YJR019C 24-37 (peptide)
chain: SFVTKYLPAAPVGS
B9: YDR239C 144-157 (peptide)
chain: SKIKRSRPPPPPMD
B10: YBR108W 721-734 (peptide)
chain: SFIRKRAPTPPAPS
B11: YNR023W 296-309 (peptide)
chain: SILRKSSPEEPFMS
B12: YGL233W 770-783 (peptide)
chain: SIIPRIFPSTPGTI
B13: YER164W 1316-1329 (peptide)
chain: SKRMKALPKGPAAL

Each binder was assayed against Sho1 SH3 (SHO1_YEAST), P40073 (assay: SPOT array).
Sho1 SH3 (SHO1_YEAST), P40073, sequence (P40073 295-366): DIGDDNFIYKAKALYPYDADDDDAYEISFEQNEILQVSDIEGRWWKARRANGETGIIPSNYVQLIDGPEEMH

normalised SPOT signal, Boehringer light units (BLU); mean over the file's lines of this peptide	Binder
29.9	B1
0	B2
76.7	B3
4940	B4
168	B5
96.4	B6
29500	B7
2510	B8
167	B9
208	B10
54.4	B11
632	B12
6310	B13

Biological target: T1, Rvs167 SH3 (RV167_YEAST), P39743
Experiment: SPOT array

normalised SPOT signal, Boehringer light units (BLU); mean over the file's lines of this peptide	Binder
21500	B1
12.9	B2
73.2	B3
10200	B4
137	B5
28300	B6
87.9	B7
100	B8
185	B9
250	B10
162	B11
369	B12
204	B13

Biological target: T2, Boi1 SH3 (BOI1_YEAST), P38041
Experiment: SPOT array

normalised SPOT signal, Boehringer light units (BLU); mean over the file's lines of this peptide	Binder
73	B1
122	B2
151	B3
7830	B4
593	B5
958	B6
1170	B7
27	B8
1250	B9
3210	B10
132	B11
176	B12
1730	B13

Biological target: T3, Boi2 SH3 (BOI2_YEAST), P39969
Experiment: SPOT array

normalised SPOT signal, Boehringer light units (BLU); mean over the file's lines of this peptide	Binder
34.5	B1
9.5	B2
25.9	B3
29.8	B4
41.3	B5
8.2	B6
43.6	B7
18.9	B8
35.1	B9
30.6	B10
43	B11
22.2	B12
66.1	B13

Biological target: T4, Myo5 SH3 (MYO5_YEAST), Q04439
Experiment: SPOT array

normalised SPOT signal, Boehringer light units (BLU); mean over the file's lines of this peptide	Binder
420	B1
72.1	B2
243	B3
5570	B4
436	B5
133	B6
200	B7
215	B8
5410	B9
878	B10
144	B11
369	B12
822	B13

Biological target: T5, Yfr024 SH3 (LSB3_YEAST), P43603
Experiment: SPOT array

normalised SPOT signal, Boehringer light units (BLU); mean over the file's lines of this peptide	Binder
19400	B1
13.5	B2
42.7	B3
39100	B4
638	B5
39200	B6
649	B7
53.3	B8
1450	B9
1500	B10
327	B11
448	B12
1540	B13

Biological target: T6, Yhr016c SH3 (YSC84_YEAST), P32793
Experiment: SPOT array

normalised SPOT signal, Boehringer light units (BLU); mean over the file's lines of this peptide	Binder
8100	B1
7.1	B2
33.4	B3
21900	B4
226	B5
11900	B6
49.3	B7
82.1	B8
123	B9
99.6	B10
22.1	B11
32.6	B12
114	B13
